Assay results published in US9371374.
Like-named read-outs stand apart in the source and are kept apart here.

How the values were obtained:
[1] = biological target: biotinylated HCV core peptide 134-154 (Peptide 1) (HCV-1); test: EIA, captured mAb
[2] = biological target: biotinylated HCV core peptide 151-171 (Peptide 3) (HCV-1); test: EIA, captured mAb
[3] = biological target: biotinylated HCV core peptide 141-161 (Peptide 2) (HCV-1); test: EIA, captured mAb
[4] = biological target: T1, HCV Core1-169 (HCV-1), P26664; test: SPR sandwich, C11-3 capture; conditions: remark: other sources report otherwise
T1 chain: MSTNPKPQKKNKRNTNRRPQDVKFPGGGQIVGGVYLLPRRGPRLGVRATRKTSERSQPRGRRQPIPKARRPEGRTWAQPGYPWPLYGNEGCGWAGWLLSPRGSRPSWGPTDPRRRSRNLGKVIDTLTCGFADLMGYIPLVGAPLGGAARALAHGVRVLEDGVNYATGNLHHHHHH

[5] = biological target: T1, HCV Core1-169 (HCV-1), P26664; test: SPR sandwich, C11-14 capture; conditions: remark: other sources report otherwise
[6] = biological target: T1, HCV Core1-169 (HCV-1), P26664; test: SPR sandwich, C11-7 capture; conditions: remark: other sources report otherwise
[7] = biological target: T1, HCV Core1-169 (HCV-1), P26664; test: SPR sandwich, C11-9 capture; conditions: remark: other sources report otherwise
[8] = biological target: biotinylated HCV core peptide 141-161 (Peptide 2) (HCV-1); test: EIA, captured mAb; remark: listed apart in the source
HCV Core1-169 (HCV-1) [9] = biological target: HCV Core1-169 (HCV-1) (UniProt P26664); test: SPR sandwich, C11-3 capture
HCV Core1-169 (HCV-1) [10] = biological target: HCV Core1-169 (HCV-1) (UniProt P26664); test: EIA, coated core1-169
HCV Core1-169 (HCV-1) [11] = biological target: HCV Core1-169 (HCV-1) (UniProt P26664); test: SPR sandwich, C11-7 capture
HCV Core1-169 (HCV-1) [12] = biological target: HCV Core1-169 (HCV-1) (UniProt P26664); test: SPR sandwich, C11-9 capture
HCV Core1-169 (HCV-1) [13] = biological target: HCV Core1-169 (HCV-1) (UniProt P26664); test: SPR sandwich, C11-14 capture
[14] = biological target: biotinylated HCV core peptide 151-171 (Peptide 3) (HCV-1); test: EIA, captured mAb; remark: listed apart in the source
[15] = biological target: biotinylated HCV core peptide 134-154 (Peptide 1) (HCV-1); test: EIA, captured mAb; remark: listed apart in the source

B1: HCV 208B-862 (antibody)
chain 1: DVQLQESGPGLVKPSQSLSLTCTVTGYSITSDYAWNWIRQFPGNKLEWMGYISYSGTTVYSPSLKSRISITRDTSKNQFFLQLNSVTIEDSATYYCGGNYWGQGTLVTVSA
chain 2: DVVLTQTPLSLPLSLGDQASISCRSSQTLLHSDGDTYLHWYLQKPGQSPKLLIYKLSNRFSGVPDRFSGSGSGTDFTLKISRVEAEDLGVYFCSQSTHVPYTFGGGTKLEIKR
Reactivity (OD492) [1]: 0.21 OD
Reactivity (OD492) [2]: 0.1 OD
Reactivity (OD492) [3]: 3.28 OD

B2: HCV 208B-793 (antibody, V domains shown)
VH: EVKLVESGGGLVQPGGSLKLSCAASGFTFSSYAMSWVRQTPERRLEWVTYISNGGGSTYYSDTVKGRFTFSRDNAKNTLYLQMSSLKSEDTAMYYCARHGLGRTGFASWGQGTLVTVSA
VL: DIVMTQSHKFMSTSVGDRVSITCKASQDVGTAVAWYQQKPGQSPKLLIYWASTRHTGVPDRFTGSGSGTDFTLTISNVQSEDLADYFCQQYSNYLTFGAGTKLEVKR
Reactivity (OD492) [1]: 0.09 OD
Reactivity (OD492) [2]: 0.09 OD
Reactivity (OD492) [3]: 0.72 OD

B3: HCV 208B-911 (antibody, V domains shown)
VH: QVHLQQPGAELVRPGVSVKLSCKASGYTFTTYSINWMKQRPGQGLEWIGNIYPSTSHTNYNQKFRDKATMTVDKSSSTAYMQLSSPTSEDSAVYYCTINAYSMDYWGQGTSVTVSS
VL: QIVLTQSPEIMSASPGEKVTITCSASSSVSFMYWFQQKPGTSPKLWIYITSNLASGVPTRFSGSGSGTSYSLTISRMEAEDAATYYCQQRSSFPYTFGGGTKLEMKR
Reactivity (OD492) [1]: 0.09 OD
Reactivity (OD492) [2]: 0.71 OD
Reactivity (OD492) [3]: 0.09 OD

B4: HCV 208B-672 (antibody, V domains shown)
VH: EVKLVESGGSLVQPGGSLKLSCAASGFNFNTYAMSWVRQTPEKRLEWVAYISNGGGNTYYVDTVKGRFTISRDNAKNTLYLRMSSLKSEDTAMYYCARHGLYWGYSMDYWGQGTSVTVSS
VL: DIQMTQSPSSLSASLGERVSLTCRASQDIGGSINWLQQEPDGTIKRLIYATSSLDSGVPKRFSGSRSGSDYSLTISSLESEDFVDYYCLQYASSPPTFGGGTKLEIKR
Reactivity (OD492) [1]: 0.08 OD
Reactivity (OD492) [2]: 0.1 OD
Reactivity (OD492) [3]: 2.79 OD

B5: HCV 208A-983 (antibody, V domains shown)
VH: QGQMQQSGAELVKPGASVKLSCKTSGFTFSSSYFSWLKQKPGQSLEWIAWIYAGTGNTIYNQKFTDKAQLTVDTASSTAFMQLSSLTIEDSAIYYCAISGTGFTYWGQGTLVTVSA
VL: DVLMTQTPLSLPVNLGDQASISCRSSQSLLHSNGNTYLEWFLQKPGQSPKLLIYNVSNRFSGVPDRFSGSGSGTDFTLKISRVEAEDLGVYYCFQGSHVPFTFGSGTKLAIKR
Reactivity (OD492) [1]: 3.03 OD
Reactivity (OD492) [2]: 0.05 OD
Reactivity (OD492) [3]: 0.4 OD
expected % binding [4]: < 1%
expected % binding [5]: < 1%
expected % binding [6]: < 1%
expected % binding [7]: < 1%

B6: HCV 208B-471 (antibody, V domains shown)
VH: QGQLQQSGPVLVKPGASEILYCKTSGFTFSSTYISWLKQKPGQSLEWIAWIYAGTGATNYNQKFTGKAQLTVDASSNTAYMHFSGLTPEDSAIYYCAISGAGVYWGQGTLVTVSA
VL: DVVMTQTPLSLPVSLGDQASISCRSSQSLLHSNGNTYLEWYLQKPGQSPNLLIYNVSNRFSGVPDRFSGSGSGTDFALKISRVGAEDLGVYYCFQGSHVPLTFGAGTKLELKR
Reactivity (OD492) [1]: 1.62 OD
Reactivity (OD492) [2]: 0.08 OD
Reactivity (OD492) [3]: 0.11 OD
expected % binding [4]: < 1%
expected % binding [5]: < 1%
expected % binding [6]: < 1%
expected % binding [7]: < 1%

B7: HCV 208A-692 (antibody, V domains shown)
VH: QGQMQQSGAELAKPGASVKLSCKTSGFTFSSSYISWLKQKPGQSLEWIAWIFAGTGNTNYNQKFTDKAQLTVDTSSSTAYMQLSSLTTEDSAIYYCAISGTGFTYWGQGTLVTVSA
VL: EVLMTQSPLSLPVSLGDQASISCRSSQSLEHSNGNTYLEWFLQRPGQPPKLLIYKVSSRFSGVPDRFSGSGSGTDFTLKISRVEAEDLGVYYCFQGSHVPFTFGSGTKLAIKR
Reactivity (OD492) [1]: 3.67 OD
Reactivity (OD492) [2]: 0.07 OD
Reactivity (OD492) [8]: 0.38 OD

B8: HCV 208B-826 (antibody, V domains shown)
VH: DVQLVESGGGLVQAGGSRKLSCAASGFPFSSFGMHWVRQAPEKGLEWVASISSRTSKIYYADNLKGRFTISRDNPKNTLFLQMTSLGSEDTAMYYCVRSVFGNSYWFFDVWGAGTTVTVSS
VL: DIVLTQSPATLSVTPGDRVSLSCRASQRIYNYLHWYQQKSHESPRLLTKYASQSISGIPSRFSGSGSGTDFILTINSVETEDFGMYFCQQSNSWPLTFGAGTKLELRR
Reactivity (OD492) [1]: 0.53 OD
Reactivity (OD492) [2]: 0.08 OD
Reactivity (OD492) [3]: 1.35 OD

B9: HCV 208B-589 (antibody, V domains shown)
VH: QVQLQQSGAGLAKPGASVKMSCKASGYTFTANKMHWAKQRPGQGLEWIGYIDPSSGYTEYNHKIQDKATLTADTSSSTAYMQLSSLTFEDSAVYYCTNFAYWGQGTLVTVSA
VL: DIVMTQTPLTLSVTIGQPASISCKSSQSLLFTNGKTYLNWFLQRPGQSPKRLIYLLSKLDSGVPDRFSGSGSGTDFTLKISRVEAEDLGVYYCLQSTYFPLTFGAGTKLELKR
Reactivity (OD492) [1]: 0.27 OD
Reactivity (OD492) [2]: 2.85 OD
Reactivity (OD492) [3]: 0.1 OD

B10: HCV 208B-612 (antibody, V domains shown)
VH: EVQLQQSGPELVKPGASVKMSCKASGYRFTSYVMHWVRQKPGQGLEWIGYIDPHNDDTKYSEKFRGKATLTSDKSSTTAYMELSSLTSEDSAVYYCVRYSYDRDYSPMDYWGQGTSVTVSS
VL: QIVLTQSPTLMSASPGEKVTMTCSASSTVTYIYWYQQKPGSSPRLWMYDTFNLVSGVPARFSGSRSGTSYFLTISSMEGEDAATYYCQQYSDSPYTFGGGTKLEIKR
Reactivity (OD492) [1]: 3.05 OD
Reactivity (OD492) [2]: 0.15 OD
Reactivity (OD492) [3]: 3.04 OD

B11: HCV 208B-822 (antibody, V domains shown)
VH: QVQLKQSGPGLVQPSQSLSITCTVSGFSLITYGVHWVRQSPGKGLEWLGVIWGGGSTGYNAAFVSRLNITKDNSKSQVFFKMNSLQPDDTAIYYCARNGGATVFDYWGQGTTLTVSS
VL: DIVMTQSPATLSVTPGDRVSLSCRASQTISDYLHWYQQKSHESPRLLIKYASQSISGIPSRFSGSGSGSHFTLSINSVEPEDVGVYYCQNGHSFPWTFGGGTKLEIKR
Reactivity (OD492) [1]: 0.08 OD
Reactivity (OD492) [2]: 0.07 OD
Reactivity (OD492) [3]: 1.35 OD

B12: HCV 208B-353 (antibody, V domains shown)
VH: EVQLVESGGDLVKPGGSLKLSCAASGFTFNHYGMSWVRQPPDKRLEWVATISSGGGYTYYPDSVKGRFTISRDNAKDTLSLQMSSLRSGDTAVYYCASLYGSLFAYWGQGTLVTVSA
VL: DIVMTQSQKFMSTTVGDRVRVTCKASQNVGTAVAWYQQKPGQSPKLLIYSASNRYTGVPDRFTGSGSGTDFTLTITNMQSEDLADYFCQQYSTYPLTFGSGAKLEIKR
Reactivity (OD492) [1]: 0.07 OD
Reactivity (OD492) [2]: 0.07 OD
Reactivity (OD492) [3]: 2.47 OD
expected % binding (HCV Core1-169 (HCV-1) [9]): 1.9%
OD (A492) (HCV Core1-169 (HCV-1) [10]): 0.3 OD
expected % binding (HCV Core1-169 (HCV-1) [11]): 2.6%
expected % binding (HCV Core1-169 (HCV-1) [12]): < 1%
expected % binding (HCV Core1-169 (HCV-1) [13]): 2.4%

B13: HCV 208B-174 (antibody, V domains shown)
VH: EVKLEESGGGLVQPGGSMKLSCVASGFSFSSYWMSWVRQSPEKGLDWVAEIRLRSDNYATHYAESVKGRFTISRDDSISRLYLQMNTLRAEDTGIYYCTWMTYWGQGTLVTVSA
VL: QNVLTQSPAIMSASPGEKVTMSCSASSSVTYMFWYQLKPESSPRLLIYDTSNLASGVPVRFSGSGSGTSYSLTISRMEAEDAATYYCQEWSSYPLTFGAGTKLDLKR
Reactivity (OD492) [1]: 0.08 OD
Reactivity (OD492) [2]: 0.07 OD
Reactivity (OD492) [3]: 1.26 OD
expected % binding [4]: 1.6%
expected % binding [5]: 1.6%
expected % binding [6]: 1.5%
expected % binding [7]: < 1%

B14: HCV 208A-874 (antibody, V domains shown)
VH: QVQLQQPGAELVKPGASVKLSCKASGYTLSSYWMHWVKQRPGQGLEWIGEIHPSDSYTSYNQKFKDKATLTVDKSSSTAYMQLSSLTSEDSAVYYCARGGYYRYDEFAYWGQGTLVTVSA
VL: DIVMTQSHKFMSTSIGDRVSITCKASQNVSPAVAWYQQKPGQSPKLLIYSASSRYTGVPDRFTGSGSGTAFTFTISSVQAEDLAVYFCQQHFSTPWTFGGGTMLEIKR
Reactivity (OD492) [1]: 0.05 OD
Reactivity (OD492) [2]: 0.06 OD
Reactivity (OD492) [3]: 0.73 OD
expected % binding (HCV Core1-169 (HCV-1) [9]): < 1%
expected % binding (HCV Core1-169 (HCV-1) [11]): < 1%
expected % binding (HCV Core1-169 (HCV-1) [12]): < 1%
expected % binding (HCV Core1-169 (HCV-1) [13]): < 1%

B15: HCV 208A-967 (antibody, V domains shown)
VH: QVQLEESGPGLVAPSQSLSITCTVSGFSLTSYGVHWVRQPPGKGLEWLGVIWAVGSINYNSALMSRLSISKDNSKSQVFLKMNSLRTDDTAMYYCARDRTTATPFFDYWGQGTTLTVSS
VL: DIVLTQSPASLAGSLGKRAPISCKASESVNFFGTNLIHWYQQKPGQPPKLLIYHASNLKTGVPARFRGRGSKTNFPLPIDPVEENDVAIYYCLQNRKIPLTFGVGTKLELKR
expected % binding (HCV Core1-169 (HCV-1) [9]): < 1%
expected % binding (HCV Core1-169 (HCV-1) [11]): < 1%
expected % binding (HCV Core1-169 (HCV-1) [12]): < 1%
Reactivity (OD492) [14]: 0.18 OD
Reactivity (OD492) [15]: 0.52 OD
Reactivity (OD492) [8]: 0.73 OD
expected % binding (HCV Core1-169 (HCV-1) [13]): < 1%
